From patent US11702475B2, “Cysteine engineered fibronectin type III domain binding molecules” (Janssen Biotech, Inc., priority 2013, dated 2023)
“And” between values parts separate entries of the source, which are not always exact repeats. Equal values may be shown once. Read-outs that look alike come from different tables or passages of the source.

B1: L32C: cysteine variant of P54AR4-83v2; NEM and VC-MMAF conjugates (conjugate)
chain: LPAPKNLVVSEVTEDSARLSWDDPWAFYESFCIQYQESEKVGEAIVLTVPGSERSYDLTGLKPGTEYTVSIYGVHNVYKDTNMRGLPLSAIFTT
modifications: left off: small tags and cut ends
notes: cysteine variant of P54AR4-83v2; NEM and VC-MMAF conjugates
B2: N6C: cysteine variant of P54AR4-83v2 (printed SEQ ID NOS: 210 and 248); NEM and VC-MMAF conjugates (conjugate)
chain: MLPAPKCLVVSEVTEDSARLSWDDPWAFYESFLIQYQESEKVGEAIVLTVPGSERSYDLTGLKPGTEYTVSIYGVHNVYKDTNMRGLPLSAIFTT
modifications: NEM or vcMMAF conjugate; EGFR binding FN3 domain
notes: NEM and VC-MMAF conjugates
B3: S16C: cysteine variant of P54AR4-83v2 (SEQ ID NOS: 194 and 232); NEM and VC-MMAF conjugates (conjugate)
chain: MLPAPKNLVVSEVTEDCARLSWDDPWAFYESFLIQYQESEKVGEAIVLTVPGSERSYDLTGLKPGTEYTVSIYGVHNVYKDTNMRGLPLSAIFTT
modifications: NEM or vcMMAF conjugate; EGFR binding FN3 domain
notes: NEM and VC-MMAF conjugates
B4: E14C: cysteine variant of P54AR4-83v2 (SEQ ID NOS: 192 and 230); NEM and VC-MMAF conjugates (conjugate)
chain: MLPAPKNLVVSEVTCDSARLSWDDPWAFYESFLIQYQESEKVGEAIVLTVPGSERSYDLTGLKPGTEYTVSIYGVHNVYKDTNMRGLPLSAIFTT
modifications: NEM or vcMMAF conjugate; EGFR binding FN3 domain
notes: NEM and VC-MMAF conjugates
B5: T93C: cysteine variant of P54AR4-83v2 (SEQ ID NOS: 216 and 254); NEM and VC-MMAF conjugates (conjugate)
chain: MLPAPKNLVVSEVTEDSARLSWDDPWAFYESFLIQYQESEKVGEAIVLTVPGSERSYDLTGLKPGTEYTVSIYGVHNVYKDTNMRGLPLSAIFCT
modifications: NEM or vcMMAF conjugate; EGFR binding FN3 domain
notes: NEM and VC-MMAF conjugates
B6: S20C: cysteine variant of P54AR4-83v2 (SEQ ID NOS: 195 and 233); NEM and VC-MMAF conjugates (conjugate)
chain: MLPAPKNLVVSEVTEDSARLCWDDPWAFYESFLIQYQESEKVGEAIVLTVPGSERSYDLTGLKPGTEYTVSIYGVHNVYKDTNMRGLPLSAIFTT
modifications: NEM or vcMMAF conjugate; EGFR binding FN3 domain
notes: NEM and VC-MMAF conjugates
B7: Q34C: cysteine variant of P54AR4-83v2 (SEQ ID NOS: 197 and 235); NEM and VC-MMAF conjugates (conjugate)
chain: MLPAPKNLVVSEVTEDSARLSWDDPWAFYESFLICYQESEKVGEAIVLTVPGSERSYDLTGLKPGTEYTVSIYGVHNVYKDTNMRGLPLSAIFTT
modifications: NEM or vcMMAF conjugate; EGFR binding FN3 domain
notes: NEM and VC-MMAF conjugates
B8: E11C: cysteine variant of P54AR4-83v2 (SEQ ID NOS: 191 and 229); NEM and VC-MMAF conjugates (conjugate)
chain: MLPAPKNLVVSCVTEDSARLSWDDPWAFYESFLIQYQESEKVGEAIVLTVPGSERSYDLTGLKPGTEYTVSIYGVHNVYKDTNMRGLPLSAIFTT
modifications: NEM or vcMMAF conjugate; EGFR binding FN3 domain
notes: NEM and VC-MMAF conjugates
B9: S30C: cysteine variant of P54AR4-83v2 (SEQ ID NOS: 196 and 234); NEM and VC-MMAF conjugates (conjugate)
chain: MLPAPKNLVVSEVTEDSARLSWDDPWAFYECFLIQYQESEKVGEAIVLTVPGSERSYDLTGLKPGTEYTVSIYGVHNVYKDTNMRGLPLSAIFTT
modifications: NEM or vcMMAF conjugate; EGFR binding FN3 domain
notes: NEM and VC-MMAF conjugates
B10: V8C: cysteine variant of P54AR4-83v2 (SEQ ID NOS: 189 and 227); NEM and VC-MMAF conjugates (conjugate)
chain: MLPAPKNLCVSEVTEDSARLSWDDPWAFYESFLIQYQESEKVGEAIVLTVPGSERSYDLTGLKPGTEYTVSIYGVHNVYKDTNMRGLPLSAIFTT
modifications: NEM or vcMMAF conjugate; EGFR binding FN3 domain
notes: NEM and VC-MMAF conjugates
B11: D15C: cysteine variant of P54AR4-83v2 (SEQ ID NOS: 193 and 231); NEM and VC-MMAF conjugates (conjugate)
chain: MLPAPKNLVVSEVTECSARLSWDDPWAFYESFLIQYQESEKVGEAIVLTVPGSERSYDLTGLKPGTEYTVSIYGVHNVYKDTNMRGLPLSAIFTT
modifications: NEM or vcMMAF conjugate; EGFR binding FN3 domain
notes: NEM and VC-MMAF conjugates
B12: E53C: cysteine variant of P54AR4-83v2 (SEQ ID NOS: 204 and 242); NEM and VC-MMAF conjugates (conjugate)
chain: MLPAPKNLVVSEVTEDSARLSWDDPWAFYESFLIQYQESEKVGEAIVLTVPGSCRSYDLTGLKPGTEYTVSIYGVHNVYKDTNMRGLPLSAIFTT
modifications: NEM or vcMMAF conjugate; EGFR binding FN3 domain
notes: NEM and VC-MMAF conjugates
B13: S10C: cysteine variant of P54AR4-83v2 (SEQ ID NOS: 190 and 228); NEM and VC-MMAF conjugates (conjugate)
chain: MLPAPKNLVVCEVTEDSARLSWDDPWAFYESFLIQYQESEKVGEAIVLTVPGSERSYDLTGLKPGTEYTVSIYGVHNVYKDTNMRGLPLSAIFTT
modifications: NEM or vcMMAF conjugate; EGFR binding FN3 domain
notes: NEM and VC-MMAF conjugates
B14: 83v2His6-cys: P54AR4-83v2 parent with C-terminal cysteine (SEQ ID NOs: 217 and 255); NEM and vcMMAF conjugates (conjugate)
chain: MLPAPKNLVVSEVTEDSARLSWDDPWAFYESFLIQYQESEKVGEAIVLTVPGSERSYDLTGLKPGTEYTVSIYGVHNVYKDTNMRGLPLSAIFTTGGHHHHHHC
modifications: His6 tag, C-terminal Cys; NEM or vcMMAF conjugate; EGFR binding FN3 domain
notes: NEM and vcMMAF conjugates

What was measured:
[1] = Thermal stability of cysteine-NEM conjugates by DSC; format: physicochemical; conditions: for First Scan Tm: DSC 25-100 °C, 1 °C per minute; for Second Scan Tm: second identical scan
Procedure: The thermal stability of cysteine-NEM conjugates was assessed by differential scanning calorimetry (DSC). The only the conjugates tested were those determined to express at high levels, conjugate efficiently, and retain EGFR binding. Additionally, cysteine variants within the BC and FG loops were excluded. Stability data was generated by heating a 400 μL aliquot of the variant from 25° C. to 100° C. at a scan rate of 1° C. per minute in a VP-DSC instrument (MicroCal). A second identical scan was completed on the sample in order to assess the reversibility of thermal folding/unfolding. Data was fitted to a 2-state unfolding model in order to calculate the melting temperature (Table 10).

[2] = Analytical size exclusion chromatography (percent monomer); format: physicochemical; conditions: NEM-conjugated cysteine variants; SEC, Abs280 monomer region 5.5-6 minutes vs oligomer region 4-5.3 minutes
Procedure: Size exclusion chromatography was used to determine the aggregation state of the FN3 domains binding EGFR. Aliquots (10 μL) of each purified FN3 domain were injected onto a Superdex 75 5/150 column (GE Healthcare) at a flow rate of 0.3 mL/min in a mobile phase of PBS pH 7.4. Elution from the column was monitored by absorbance at 280 nm.
The percent monomer for each protein was determined by integrating the Abs280 signal and comparing the peak in the monomer region (5.5-6 minutes) to the peaks in the oligomer region (4-5.3 minutes).

[3] = test system: EGFR-overexpressing human tumor cell line H1573; assay: Cytotoxicity assay in H1573 cells; format: cell-based; conditions: for potency relative to the parent conjugate (in words): VC-MMAF conjugates
Procedure: Cell killing was assessed by measuring viability of the EGFR-overexpressing human tumor cell line H1573 following exposure to the cysteine variant-cytotoxin conjugates. Cells were plated in black-well, clear bottomed, tissue culture-treated plates (Falcon 353219) at 7000/well in 100 μL/well of phenol red free RPMI media (Gibco 11835-030) with 5% fetal bovine serum (Gibco). Cells were allowed to attach overnight at 37° C. in a humidified 5% CO2 atmosphere. Medium was aspirated from 96-well plate and cells were treated with 50 uL of fresh media and 50 uL of 2× inhibitor made up in fresh media. Cell viability was determined by an endpoint assay with Cell TiterGlo (Promega) at 70 hours. IC50 values were determined by fitting data to the equation for a sigmoidal dose response with variable slope using GraphPad Prism 5 (GraphPad Software). Table 11 reports IC50 values obtained from analysis of the CellTiter Glo data.
Conjugates consisting of ECB147 cysteine variants, 83v2-cys, or Tencon-cys linked to a cytotoxic tubulin inhibitor from the auristatin family (FIG. 2) were tested for target-dependent cytotoxicity in cancer cells. The inhibitor was linked to the cysteine-containing protein via a non-cleavable PEG4 linker or an enzyme-cleavable valine-citrulline or valine-lysine linker. Cell killing was assessed by measuring viability of the EGFR-overexpressing human tumor cell lines H1573 and A431 as well as the EGFR-negative tumor cell line MDA-MB-435 following exposure to the protein-cytotoxin conjugates using the procedure described in Example 4.

[4] = cysteine variants conjugated to VC-MMAF, Cell TiterGlo at 70 hours, read-out: IC50

| Molecule | First Scan Tm [1] [°C] | Second Scan Tm [1] [°C] | Percent monomer [2] [%] | IC50 [3, 4] | potency relative to the parent conjugate (in words) [3] | IC50 ([3]; vcMMAF conjugate, read-out: average IC50 of two replicates) [nM] |
| --- | --- | --- | --- | --- | --- | --- |
| B1 | 71 | 70 | 100 | 2.92 nM |  |  |
| B2 | 71 | 70 | 94 | 0.16 nM | over two times more potent than the parent |  |
| B3 | 68 | 68 | 75 | 0.75 nM |  |  |
| B4 | 70 | 71 | 96 | 0.34 nM |  |  |
| B5 | 69 | 69 | 100 | 0.2 nM | over two times more potent than the parent |  |
| B6 | 70 | 70 | 94 | 0.36 nM |  |  |
| B7 | 75 | 74 | 97 | 0.74 nM |  |  |
| B8 | 71 | 72 | 100 | 0.94 nM |  |  |
| B9 | 71 | 71 | 94 | 0.78 nM |  |  |
| B10 | 69 | 69 | 91 | 0.35 nM |  |  |
| B11 | 73 | 73 | 97 | 0.33 nM |  |  |
| B12 | 76 | 75 | 97 | 0.09 nM | over two times more potent than the parent |  |
| B13 | 68 | 68 | 80 | 0.43 nM |  |  |
| B14 | 71 | 71 | 97 | 0.61 nM and 0.79 nM |  | 0.7 |
